*1 amine or outer side, *2 acyl side, *3 side chain or, on linkers, in order; H or OH if unused. Bridges are numbered along the chain shown (N, C = ends). Primed or numbered codes have the meaning given here. [ ]: non-standard residue; d: D form. Phe(4-OMe)(5) = O-methyl-L-tyrosine (4-methoxy-Phe), COc1ccc(C[C@H](N[*:1])C(=O)[*:2])cc1; 2Nal = N[C@@H](Cc1ccc2ccccc2c1)C(=O)O; AEF = NCCOc1ccc(C[C@H](N)C(=O)O)cc1; Gly(octyl) = CCCCCCCC[C@H](N)C(=O)O; hArg = N=C(N)NCCCC[C@H](N)C(=O)O; Pen = CC(C)(S)[C@H](N)C(=O)O; αMeK = C[C@](N)(CCCCN)C(=O)O; αMeS = C[C@](N)(CO)C(=O)O; Iva = CC[C@](C)(N)C(=O)O; Abu = CC[C@H](N)C(=O)O; Aib = CC(C)(N)C(=O)O; AEA = NCCOCC(=O)O
B1: Ac-[Pen]-QTWQ-[Pen]-[Phe[4-(2-acetylaminoethoxy)]-[2-Nal]-[Aib]-ENN-NH2 (peptide)
peptide: XQTWQXFXXENN
modifications: Ac; Pen-Pen disulfide; Phe[4-(2-acetylaminoethoxy)]; 2-Nal; Aib; NH2
B2: Ac-Cyclo-[[Abu]-QTWQC]-[Phe[4-(2-aminoethoxy)]]-[2-Nal][α-MeLys]-[Lys(Ac)]--NG-[AEA]-[(D)Lys]-NH2 (peptide)
peptide: Ac-[Abu]QTWQC[AEF][2Nal][αMeK]K(Ac)NG[AEA][dK]-NH2
modifications: thioether 1-6
B3: Ac-Cyclo-[[Abu]-QTWQC]-[Octgly]-[2-Nal]-[α-MeLys]-[Lys(Ac)]-NG-NH2 (peptide)
peptide: Ac-[Abu]QTWQC[Gly(octyl)][2Nal][αMeK]K(Ac)NG-NH2
modifications: thioether 1-6
B4: Ac-Cyclo-[[Abu]-TTWQC]-[Phe[4-(2-aminoethoxy)]]-[2-Nal]-[α-MeLys]-ENG-NH2 (peptide)
peptide: Ac-[Abu]TTWQC[AEF][2Nal][αMeK]ENG-NH2
modifications: thioether 1-6
B5: Ac-Cyclo-[[Abu]-QTWQC]-[Phe[4-(2-aminoethoxy)]]-[2-Nal]-[α-Me-Gly(Ethyl)]Lys(Ac)]-NG-NH2 (peptide)
peptide: Ac-[Abu]QTWQC[AEF][2Nal][Iva]K(Ac)NG-NH2
modifications: thioether 1-6
B6: Ac-Cyclo-[[Abu]-QTWQC]-[Phe[4-(2-aminoethoxy)]]-[2-Nal]-[α-MeSer]-[Lys(Ac)]-NG-NH2 (peptide)
peptide: Ac-[Abu]QTWQC[AEF][2Nal][αMeS]K(Ac)NG-NH2
modifications: thioether 1-6
B7: Ac-Cyclo-[[Abu]-QTWQC]-[Phe[4-(2-aminoethoxy)]]-[2-Nal]-[α-MeLys]-QNG-NH2 (peptide)
peptide: Ac-[Abu]QTWQC[AEF][2Nal][αMeK]QNG-NH2
modifications: thioether 1-6
B8: Ac-Cyclo-[[Abu]-QTWQC]-[Phe[4-(2-aminoethoxy)]]-2-Nal]-[α-MeLys]-hRNG-NH2 (peptide)
peptide: Ac-[Abu]QTWQC[AEF][2Nal][αMeK][hArg]NG-NH2
modifications: thioether 1-6
B9: Ac-Cyclo-[[Abu]-QTWQC]-[Phe[4-(2-aminoethoxy)]]-[2-Nal]-[α-MeLys]-NNG-NH2 (peptide)
peptide: Ac-[Abu]QTWQC[AEF][2Nal][αMeK]NNG-NH2
modifications: thioether 1-6
B10: Ac-Cyclo-[[Abu]-QTYQC]-[Phe(4-OMe)]-[2-Nal]-[α-MeLys]-[Lys(Ac)]-NG-NH2 (peptide)
peptide: Ac-[Abu]QTYQC[Phe(4-OMe)(5)][2Nal][αMeK]K(Ac)NG-NH2
modifications: thioether 1-6
B11: Ac-[Pen]-QTWQ-[Pen]-Y-[2-Nal]-[α-MeOrn]-ENG-NH2 (peptide)
peptide: XQTWQXYXXENG
modifications: Ac; Pen-Pen disulfide; 2-Nal; α-MeOrn; NH2
B12: Ac-Cyclo-[[Abu]-TWQC]-[Phe[4-(2-aminoethoxy)]]-[2-Nal]-[α-MeLys]-ENG-NH2 (peptide)
peptide: Ac-[Abu]TWQC[AEF][2Nal][αMeK]ENG-NH2
modifications: thioether 1-5
B13: Ac-[Pen]-TTWQ-[Pen]-[Phe[4-(2-aminoethoxy)]-[2-Nal]-[Aib]-[Lys(Ac)]-NN-NH2 (peptide)
peptide: Ac-[Pen]TTWQ[Pen][AEF][2Nal][Aib]K(Ac)NN-NH2
modifications: disulfide 1-6 (inferred)
B14: Ac-[Pen]-QTWQ-[Pen]-[2-Nal]-[2-Nal]-[α-MeLys]-ENG-NH2 (peptide)
peptide: Ac-[Pen]QTWQ[Pen][2Nal][2Nal][αMeK]ENG-NH2
modifications: disulfide 1-6
SMILES: CC(=O)N[C@@H]1C(=O)N[C@@H](CCC(N)=O)C(=O)N[C@@H]([C@@H](C)O)C(=O)N[C@@H](Cc2c[nH]c3ccccc23)C(=O)N[C@@H](CCC(N)=O)C(=O)N[C@H](C(=O)N[C@@H](Cc2ccc3ccccc3c2)C(=O)N[C@@H](Cc2ccc3ccccc3c2)C(=O)N[C@@](C)(CCCCN)C(=O)N[C@@H](CCC(=O)O)C(=O)N[C@@H](CC(N)=O)C(=O)NCC(N)=O)C(C)(C)SSC1(C)C
B15: Ac-[Pen]-NTWQ-[Pen]-[Phe[4-(2-aminoethoxy)]-[2-Nal]-[Aib]-[Lys(Ac)]-NQ-NH2 (peptide)
peptide: XNTWQXFXXKNQ
modifications: Ac; Pen-Pen disulfide; Phe[4-(2-aminoethoxy)]; 2-Nal; Aib; Lys(Ac); NH2
B16: Ac-[Pen]-NTWQ-[Pen]-[Phe(4-OMe)]-[2-Nal]-[Aib]-[Lys(Ac)]-NA-NH2 (peptide)
peptide: XNTWQXFXXKNA
modifications: Ac; Pen-Pen disulfide; Phe(4-OMe); 2-Nal; Aib; Lys(Ac); NH2
B17: Ac-[Pen]-QTWQ-[Pen]-[Phe[4-(2-acetylaminoethoxy)]-[2-Nal]-[Aib]-[Lys(Ac)]-NN-NH2 (peptide)
peptide: XQTWQXFXXKNN
modifications: Ac; Pen-Pen disulfide; Phe[4-(2-acetylaminoethoxy)]; 2-Nal; Aib; Lys(Ac); NH2
B18: Ac-Cyclo-[[Abu]-QTWQC]-[Phe[4-(2-aminoethoxy)]]-[2-Nal]-[α-MeLys]-[Orn]-NG-NH2 (peptide)
peptide: XQTWQCFXKXNG
modifications: as bracketed in name; thioether cyclo
B19: Ac-[Pen]-NTWQ-[Pen]-[Phe(4-OMe)]-[2-Nal]-[Aib]-ENN-NH2 (peptide)
peptide: XNTWQXFXXENN
modifications: Ac; Pen-Pen disulfide; Phe(4-OMe); 2-Nal; Aib; NH2
B20: Ac-[Pen]-NTWQ-[Pen]-[Phe[4-(2-aminoethoxy)]-[2-Nal]-[Aib]-[Lys(Ac)]-NN-NH2 (peptide)
peptide: XNTWQXFXXKNN
modifications: Ac; Pen-Pen disulfide; Phe[4-(2-aminoethoxy)]; 2-Nal; Aib; Lys(Ac); NH2
B21: Ac-[Pen]-QTWQ-[Pen]-[Phe(4-OMe)]-[2-Nal]-[Aib]-[Lys(Ac)]-NN-NH2 (peptide)
peptide: XQTWQXFXXKNN
modifications: Ac; Pen-Pen disulfide; Phe(4-OMe); 2-Nal; Aib; Lys(Ac); NH2
B22: Ac-[Pen]-QTWQ-[Pen]-[Phe[4-(2-aminoethoxy)]-[2-Nal]-[hLeu]-ENA-NH2 (peptide)
peptide: XQTWQXFXLENA
modifications: Ac; Pen-Pen disulfide; Phe[4-(2-aminoethoxy)]; 2-Nal; hLeu; NH2

What was measured:
IL-23R on DB cells = biological target: T1, IL-23R on DB cells (human, UniProt Q5VWK5 24-629); assay: cell-based or functional assay
T1 sequence (looked up): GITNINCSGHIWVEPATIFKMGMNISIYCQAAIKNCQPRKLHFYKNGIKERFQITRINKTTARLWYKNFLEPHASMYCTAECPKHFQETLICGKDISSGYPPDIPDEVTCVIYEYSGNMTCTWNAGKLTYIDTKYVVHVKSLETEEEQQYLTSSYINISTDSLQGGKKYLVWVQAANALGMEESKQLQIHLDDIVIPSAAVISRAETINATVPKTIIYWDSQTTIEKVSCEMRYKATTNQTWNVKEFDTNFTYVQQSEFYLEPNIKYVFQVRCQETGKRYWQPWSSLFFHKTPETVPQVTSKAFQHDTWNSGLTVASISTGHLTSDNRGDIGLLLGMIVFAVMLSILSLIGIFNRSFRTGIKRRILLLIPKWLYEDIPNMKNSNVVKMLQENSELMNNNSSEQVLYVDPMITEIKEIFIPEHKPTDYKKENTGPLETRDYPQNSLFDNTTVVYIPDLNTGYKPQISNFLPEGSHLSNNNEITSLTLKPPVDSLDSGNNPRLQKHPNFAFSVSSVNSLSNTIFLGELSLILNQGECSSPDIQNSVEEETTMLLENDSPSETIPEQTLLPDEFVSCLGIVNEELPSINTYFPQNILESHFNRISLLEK

[1] = biological target: T2, IL-23R on human cells (IL-23R-expressing DB cells; human NK cells) (human, UniProt Q5VWK5 24-629); assay: cell-based or functional assay
T2 sequence (looked up): T1 sequence (looked up)

IL23R_huFC = biological target: T3, IL23R_huFC (human, UniProt Q5VWK5 24-353); assay: human ELISA vs IL-23
T3 sequence (looked up): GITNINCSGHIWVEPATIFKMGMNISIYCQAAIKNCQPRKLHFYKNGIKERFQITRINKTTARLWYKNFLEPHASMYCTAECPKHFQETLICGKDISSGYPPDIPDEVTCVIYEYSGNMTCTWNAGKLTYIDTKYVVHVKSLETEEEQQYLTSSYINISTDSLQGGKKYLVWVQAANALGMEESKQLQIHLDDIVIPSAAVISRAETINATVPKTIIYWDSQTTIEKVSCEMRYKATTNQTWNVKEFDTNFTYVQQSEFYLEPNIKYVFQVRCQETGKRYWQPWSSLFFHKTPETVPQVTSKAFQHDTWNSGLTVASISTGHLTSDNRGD

Binder	pStat3 HTRF IC50 (IL-23R on DB cells) [nM]	pStat3 HTRF IC50 [1] [nM]	IC50 (IL23R_huFC) [nM]
B1	< 10	–	–
B2	–	< 10	< 10
B3	–	–	~10000
B4	–	< 10	< 10
B5	–	< 10	< 10
B6	–	< 10	< 10
B7	–	< 10	< 10
B8	–	< 10	< 10
B9	–	< 10	< 10
B10	–	–	~10000
B11	10 to 25	–	–
B12	–	< 10	< 10
B13	< 10	–	–
B14	10 to 25	–	–
B15	< 10	–	–
B16	< 10	–	–
B17	< 10	–	–
B18	–	< 10	< 10
B19	< 10	–	–
B20	< 10	–	–
B21	< 10	–	–
B22	10 to 25	–	–
